These results are taken from patent US20230295310A1 (ABCELLERA BIOLOGICS, published 2023).

Where a chain is given by its changes, count along the chain named.

The test addresses EGFR on HeLa cells (UniProt P00533 25-1210, limits assumed). Put plainly: cell-based or functional assay.

B1: GOMP001_bsAb_012 (bispecific antibody, human IgG1, kappa, L234A L235A)
heavy 1: EVQLVESGGGLVQPGGSLRLSCAASGFTLSSYTMNWVRKAPGKGLEWVSYISSSSRTIYYSDEVKGRFSISRDNAKNSLYLQMNSLRDEDTALYYCAREDYYDSSGFDNWGQGTLVTVSSASTKGPSVFPLAPSSKSTSGGTAALGCLVADYFPEPVTVSWNSGALTSGVHTFPAVLQSSGLYSLSSVVTVPSSSLGTQTYICNVNHKPSNTKVDEKVEPKSCDKTHTCPPCPAPEAAGGPSVFLFPPKPKDTLMISRTPEVTCVVVDVSHEDPEVKFNWYVDGVEVHNAKTKPREEQYNSTYRVVSVLTVLHQDWLNGKEYKCKVSNKALPAPIEKTISKAKGQPREPQVYTLPPSREEMTDNQVSLTCLVKGFYPSDIAVEWESNGQPENNYKTTPPVLMSDGSFFLASKLTVDKSRWQQGNVFSCSVMHEALHNHYTQKSLSLSPG
light 1: RIRMTQSPSSFSASTGDRVTITCRASQGISSYLAWYQDKPGKAPKLLIYTASTLQSGVPSRFSGSGSGTDFTLTIRSLQSEDFATYYCQQYYSYPRTFGQGTKVEIKRTVAAPSVFIFPPSDKQLKSGTARVVCLLNNFYPREAKVQWKVDNALQSGNSQESVTEQDSKDSTYSLSSTLTLSKADYEKHKVYACEVTHQGLSSPVTKSFNRGEC
heavy 2: QVQLVQSGAEVKKPGASVKVSCKASGYTFTSHWMHWVRYAPGQGLEWIGEFNPSNGRTNYNEKFKSKATMTVDTSTNTAYMELSSLRSEDTAVYYCASRDYDYDGRYFDYWGRGTLVTVSSASTKGPSVFPLAPSSKSTSGGTAALGCLVKDYFPEPVTVSWNSGALTSGVHTFPAVLQSSGLYSLSSVVTVPSSSLGTQTYICNVNHKPSNTKVDKKVEPKSCDKTHTCPPCPAPEAAGGPSVFLFPPKPKDTLMISRTPEVTCVVVDVSHEDPEVKFNWYVDGVEVHNAKTKPREEQYNSTYRVVSVLTVLHQDWLNGKEYKCKVSNKALPAPIEKTISKAKGQPRRPRVYTLPPSREEMTKNQVSLVCLVKGFYPSDIAVEWESNGQPENNYKTTPPVLDSDGSFFLYSVLTVDKSRWQQGNVFSCSVMHEALHNHYTQKSLSLSPG
light 2: DIQMTQSPSSLSASVGDRVTITCSASSSVTYMYWYQRKPGDAPKLLIYDTSNLASGVPSRFSGSGSGTDYTFTISSLQPEDIATYYCQQWSSHIFTFGQGTKVEIKRTVAAPSVFIFPPSDEQLKSGTASVVCLLNNFYPREAKVQWKVDNALQSGNSQESVTEQDSKDSTYSLSSTLTLSKADYEKHKVYACEVTHQGLSSPVTKSFNRGEC
Turning to B1, the Max killing % worked out at 93.3% and the “X… HeLa EC50” value amounted to 39.5 pM.

B2: GOMP001_bsAb_013 (bispecific antibody, human IgG1, kappa, L234A L235A)
heavy 1: QVQLVQSGAEVKKPGASVKVSCKASGYTFTSHWMHWVRKAPGQGLEWIGEFNPSNGRTNYNEEFKSKATMTVDTSTNTAYMELSSLRSEDTAVYYCASRDYDYDGRYFDYWGQGTLVTVSSASTKGPSVFPLAPSSKSTSGGTAALGCLVADYFPEPVTVSWNSGALTSGVHTFPAVLQSSGLYSLSSVVTVPSSSLGTQTYICNVNHKPSNTKVDEKVEPKSCDKTHTCPPCPAPEAAGGPSVFLFPPKPKDTLMISRTPEVTCVVVDVSHEDPEVKFNWYVDGVEVHNAKTKPREEQYNSTYRVVSVLTVLHQDWLNGKEYKCKVSNKALPAPIEKTISKAKGQPREPQVYTLPPSREEMTDNQVSLTCLVKGFYPSDIAVEWESNGQPENNYKTTPPVLMSDGSFFLASKLTVDKSRWQQGNVFSCSVMHEALHNHYTQKSLSLSPG
light 1: B1 light 2 with D1R, R37D, D41K, E122K, S130R
heavy 2: QVQLVQSGAEVKKPGASVKVSCKASGYTFTSYDINWVRYATGQGLEWMGWMNPKSGKTGYAQKFQGRITMTRNTPISTVYMDLSSLRSEDTAVYYCAREGHYDFWTGYYSFDYWGRGTLVTVSSASTKGPSVFPLAPSSKSTSGGTAALGCLVKDYFPEPVTVSWNSGALTSGVHTFPAVLQSSGLYSLSSVVTVPSSSLGTQTYICNVNHKPSNTKVDKKVEPKSCDKTHTCPPCPAPEAAGGPSVFLFPPKPKDTLMISRTPEVTCVVVDVSHEDPEVKFNWYVDGVEVHNAKTKPREEQYNSTYRVVSVLTVLHQDWLNGKEYKCKVSNKALPAPIEKTISKAKGQPRRPRVYTLPPSREEMTKNQVSLVCLVKGFYPSDIAVEWESNGQPENNYKTTPPVLDSDGSFFLYSVLTVDKSRWQQGNVFSCSVMHEALHNHYTQKSLSLSPG
light 2: DIQMTQSPSSLSASVGDRVTITCRASQGIRNDLGWYQRTPGDAPKRLIYAASSLQSGVPSRFSGSGSGTEFTLTISSLQPEDFATYYCLQHYSYPYTFGQGTKLEIKRTVAAPSVFIFPPSDEQLKSGTASVVCLLNNFYPREAKVQWKVDNALQSGNSQESVTEQDSKDSTYSLSSTLTLSKADYEKHKVYACEVTHQGLSSPVTKSFNRGEC
In the case of B2, the Max killing % is 80.8% and the “X… HeLa EC50” value amounted to 668 pM.

B3: GOMP001_bsAb_014 (bispecific antibody, human IgG1, kappa, L234A L235A)
heavy 1: QVQLVQSGAEVKKPGASVKVSCKASGYTFTSYDINWVRKATGQGLEWMGWMNPKSGKTGYAQEFQGRITMTRNTPISTVYMDLSSLRSEDTAVYYCAREGHYDFWTGYYSFDYWGQGTLVTVSSASTKGPSVFPLAPSSKSTSGGTAALGCLVADYFPEPVTVSWNSGALTSGVHTFPAVLQSSGLYSLSSVVTVPSSSLGTQTYICNVNHKPSNTKVDEKVEPKSCDKTHTCPPCPAPEAAGGPSVFLFPPKPKDTLMISRTPEVTCVVVDVSHEDPEVKFNWYVDGVEVHNAKTKPREEQYNSTYRVVSVLTVLHQDWLNGKEYKCKVSNKALPAPIEKTISKAKGQPREPQVYTLPPSREEMTDNQVSLTCLVKGFYPSDIAVEWESNGQPENNYKTTPPVLMSDGSFFLASKLTVDKSRWQQGNVFSCSVMHEALHNHYTQKSLSLSPG
light 1: B2 light 2 with D1R, R38D, D42K, E123K, S131R
heavy 2: B1 heavy 2
light 2: B1 light 2
As for B3, the Max killing % was 95% and the “X… HeLa EC50” value turned out to be 131 pM.

B4: GOMP001_bsAb_015 (bispecific antibody, human IgG1, kappa, L234A L235A)
heavy 1: B2 heavy 1
light 1: B1 light 2 with D1R, R37D, D41K, E122K, S130R
heavy 2: QVQLVESGGGVVQPGRSLRLSCAASGFTFSGYGMHWVRYAPGKGLDWVAIIYYNGNNKYYADRVKGRFTISRDNSKNTLYLQMNSLRAEDTAVYYCARGGGYNWFDPWGRGTLVIVSSASTKGPSVFPLAPSSKSTSGGTAALGCLVKDYFPEPVTVSWNSGALTSGVHTFPAVLQSSGLYSLSSVVTVPSSSLGTQTYICNVNHKPSNTKVDKKVEPKSCDKTHTCPPCPAPEAAGGPSVFLFPPKPKDTLMISRTPEVTCVVVDVSHEDPEVKFNWYVDGVEVHNAKTKPREEQYNSTYRVVSVLTVLHQDWLNGKEYKCKVSNKALPAPIEKTISKAKGQPRRPRVYTLPPSREEMTKNQVSLVCLVKGFYPSDIAVEWESNGQPENNYKTTPPVLDSDGSFFLYSVLTVDKSRWQQGNVFSCSVMHEALHNHYTQKSLSLSPG
light 2: not shown
In the case of B4, the Max killing % is 100% and the “X… HeLa EC50” value is 179 pM.

B5: GOMP001_bsAb_016 (bispecific antibody, human IgG1, kappa, L234A L235A)
heavy 1: QVQLVESGGGVVQPGRSLRLSCAASGFTFSGYGMHWVRKAPGKGLDWVAIIYYNGNNKYYADEVKGRFTISRDNSKNTLYLQMNSLRAEDTAVYYCARGGGYNWFDPWGQGTLVIVSSASTKGPSVFPLAPSSKSTSGGTAALGCLVADYFPEPVTVSWNSGALTSGVHTFPAVLQSSGLYSLSSVVTVPSSSLGTQTYICNVNHKPSNTKVDEKVEPKSCDKTHTCPPCPAPEAAGGPSVFLFPPKPKDTLMISRTPEVTCVVVDVSHEDPEVKFNWYVDGVEVHNAKTKPREEQYNSTYRVVSVLTVLHQDWLNGKEYKCKVSNKALPAPIEKTISKAKGQPREPQVYTLPPSREEMTDNQVSLTCLVKGFYPSDIAVEWESNGQPENNYKTTPPVLMSDGSFFLASKLTVDKSRWQQGNVFSCSVMHEALHNHYTQKSLSLSPG
light 1: RIQMTQSPSSLSASVGDRVTITCRPSQSISNYLNWYQDKPGKAPKLLIYAASSLQSGVPSRFSGSGSGTDFTLTISSLQPEDFATYYCQQSYSTPFTFGRGTRLEIKRTVAAPSVFIFPPSDKQLKSGTARVVCLLNNFYPREAKVQWKVDNALQSGNSQESVTEQDSKDSTYSLSSTLTLSKADYEKHKVYACEVTHQGLSSPVTKSFNRGEC
heavy 2: B1 heavy 2
light 2: B1 light 2
For B5, the Max killing % amounted to 92% and the “X… HeLa EC50” value was determined as 19.2 pM.
